The source of these data is US20200377560A1 (WYL SCIENCES, published 2020).

The target in this assay is T1, bovine serum albumin (bovine, UniProt P02769 25-607).
T1 construct: Control protein in the dot immunoblot; also called BSA
As to the kind of experiment: dot immunoblot, BSA dotted as control. From the text:
The fusion protein containing the full-length royalactin with a histidine tag (SEQ ID NO: 2), which was confirmed to have biological activity in Example 1, was produced in bacteria and purified. This protein was used to generate monoclonal antibodies by injection into mice with subsequent harvest of the spleen for generation of multiple hybridomas. Individual hybridomas were isolated and the antibody produced was screened using dot immunoblot assays. Various concentrations of royalactin were dotted onto the blot with bovine serum albumin (BSA) as a control.

T1 sequence (P02769 25-607 limits assumed): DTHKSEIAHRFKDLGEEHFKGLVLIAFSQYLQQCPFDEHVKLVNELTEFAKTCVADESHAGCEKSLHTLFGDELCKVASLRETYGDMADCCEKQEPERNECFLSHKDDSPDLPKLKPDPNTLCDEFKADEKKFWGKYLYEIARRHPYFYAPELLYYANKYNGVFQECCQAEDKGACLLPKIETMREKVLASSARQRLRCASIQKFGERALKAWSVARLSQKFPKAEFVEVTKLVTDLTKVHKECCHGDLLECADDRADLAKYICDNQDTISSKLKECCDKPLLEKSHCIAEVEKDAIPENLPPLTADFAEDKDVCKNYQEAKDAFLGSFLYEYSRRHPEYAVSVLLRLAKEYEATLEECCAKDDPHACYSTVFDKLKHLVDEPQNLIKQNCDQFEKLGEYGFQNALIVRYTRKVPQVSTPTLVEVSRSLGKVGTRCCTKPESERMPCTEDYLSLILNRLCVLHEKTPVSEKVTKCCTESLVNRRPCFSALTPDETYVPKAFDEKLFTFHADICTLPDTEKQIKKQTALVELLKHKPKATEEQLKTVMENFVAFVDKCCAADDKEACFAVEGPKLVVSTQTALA

B1: monoclonal antibody #19 (4G6C5) (antibody, V domains shown)
VH: VMLVESGGGLVKPGGSLKLSCAASGFTFSRYAMSWNRQTPEKRLEWVATISPGGGYIYYSDSVKGRFTISRDNARNTLYLQMSSLRSEDTAMYYCAGDYVDYWGQGTTLTVSS
VL: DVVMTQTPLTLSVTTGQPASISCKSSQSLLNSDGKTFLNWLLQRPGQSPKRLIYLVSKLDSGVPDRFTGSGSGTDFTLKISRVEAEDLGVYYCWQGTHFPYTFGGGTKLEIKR
notes: Mouse hybridoma monoclonal antibody; also called antibody 4G6C5; hybridoma #19
In the case of B1, the binding result was “no binding (tested: 2 ng)”.
